Experimental data as given in patent US20130344073.

Key:
pro-factor D-His = pro-factor D-His (UniProt P00746)
ST-pro-factor D-His = ST-pro-factor D-His (UniProt P00746)

Chain of full length wild type recombinant human MASP-3 (chain): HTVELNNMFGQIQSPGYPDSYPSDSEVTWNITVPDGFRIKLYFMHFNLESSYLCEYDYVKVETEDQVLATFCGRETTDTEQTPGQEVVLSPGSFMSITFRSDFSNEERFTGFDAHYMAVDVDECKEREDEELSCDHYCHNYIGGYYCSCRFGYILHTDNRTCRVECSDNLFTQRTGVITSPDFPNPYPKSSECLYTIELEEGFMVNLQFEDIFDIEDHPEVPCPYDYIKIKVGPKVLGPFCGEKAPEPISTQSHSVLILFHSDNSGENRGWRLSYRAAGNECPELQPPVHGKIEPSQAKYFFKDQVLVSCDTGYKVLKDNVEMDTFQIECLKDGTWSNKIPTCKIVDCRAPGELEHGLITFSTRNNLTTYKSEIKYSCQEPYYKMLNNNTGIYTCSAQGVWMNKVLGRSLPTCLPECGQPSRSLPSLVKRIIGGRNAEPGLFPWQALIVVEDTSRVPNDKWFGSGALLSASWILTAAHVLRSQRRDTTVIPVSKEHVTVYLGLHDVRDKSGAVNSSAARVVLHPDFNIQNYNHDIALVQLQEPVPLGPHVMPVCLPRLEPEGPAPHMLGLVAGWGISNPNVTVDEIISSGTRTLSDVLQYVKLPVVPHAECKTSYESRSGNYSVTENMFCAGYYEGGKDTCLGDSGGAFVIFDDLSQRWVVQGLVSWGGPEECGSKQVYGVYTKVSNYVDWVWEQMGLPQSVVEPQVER

Substance	cleavage of pro-factor D (Western blot) (pro-factor D-His)	cleavage of pro-factor D (Western blot) (ST-pro-factor D-His)
catalytically-inactive full length MASP-3 (S679A)	The catalytically-inactive full length MASP-3 (S679A; lane 3) and MASP-1 (S646A; lane 3) failed to cleave either substrate	The catalytically-inactive full length MASP-3 (S679A; lane 3) and MASP-1 (S646A; lane 3) failed to cleave either substrate
full length wild type recombinant human MASP-3	Identical results were obtained with the pro-factor D-His6 polypeptide (not shown)	only full length MASP-3 (lane 2) and the MASP-1 CCP1-CCP2-SP) fragment (lane 5) cleaved ST-pro-factor D-His6
